Data on eight molecules can be found in paper PMC2864739, “Crystal Structure of the Neutralizing Llama VHH D7 and Its Mode of HIV-1 gp120 Interaction” (PLoS ONE, 2010).

In experiment [1] the target is T1, HIV-1 envelope glycoprotein gp120 (IIIB) (HIV-1 IIIB (HXB2 clone entry), UniProt P04578). Put plainly: cell-based or functional assay.
Experiment [2] deals with T1, HIV-1 envelope glycoprotein gp120 (IIIB). The experiment is described as follows: SPR; gp120 (IIIB) coupled covalently to a CM5 chip; D7 or D7 mutants at 25 and 100 nM flowed over; Biacore X; 10 mM HEPES pH 7.5, 100 mM NaCl, 0.05% P20; 30 µl/min; association 3 min, dissociation 15 min; simultaneous fit of association and dissociation. Particulars: both partners purified. (In SPR one partner is held on a chip, and binding of the other changes the refractive index at the surface.)

B1: llama heavy chain antibody fragment VHH D7, wild type (VHH)
VHH: AVQLVESGGGLAQAGGSLRLSCTVSGRTSSSHDMGWFRQAPGKEREFVAAISWSGGTTNYADSVKGRFAISKDNAKNAVSLQMNSLKPEDTAVYYCAAKWRPLRYSDNPSNSDYNYWGQGTQVTVSS
notes: PDB 2xa3 holds D7 with the framework changes Val5Gln, Ala11Val, Ala61Val, Ala68Asp and Ser79Tyr against wild type D7
Regarding B1, in experiment [1], the “IC50 of neutralisation of HIV-1 IIIB in TZM-bl cells, Average” value (from here on “IC50 of neutralisation … Average”) is 0.054 µg/mL; the “IC50 of neutralisation of HIV-1 IIIB in TZM-bl cells, Exp1” value (shortened to “IC50 of neutralisation … Exp1”) was 0.066 µg/mL; the “IC50 of neutralisation of HIV-1 IIIB in TZM-bl cells, Exp2” value (“IC50 of neutralisation … Exp2” for short) was 0.041 µg/mL. Also, in experiment [2], the Kd – broadly, the equilibrium constant for the complex coming apart – worked out at 2.91 ± 0.87 nM; the koff (usually a measure of how fast the partners let go of each other) was 0.000551 s⁻¹; the kon (in general, the second-order rate constant of association) is 155000 M⁻¹ s⁻¹.

B2: VHH D7 Asn100D→Ala (VHH)
VHH: AVQLVESGGGLAQAGGSLRLSCTVSGRTSSSHDMGWFRQAPGKEREFVAAISWSGGTTNYADSVKGRFAISKDNAKNAVSLQMNSLKPEDTAVYYCAAKWRPLRYSDAPSNSDYNYWGQGTQVTVSS
notes: PDB 2xa3 holds D7 with five framework changes) with the stated CDR3 mutation; Chothia numbering (100D is an insertion position)
In experiment [2], B2 came in with a Kd of 0.51 ± 0.02 nM, a koff of 0.000128 s⁻¹ and a kon of 252000 M⁻¹ s⁻¹.

B3: VHH D7 Leu99→Ala (VHH)
VHH: AVQLVESGGGLAQAGGSLRLSCTVSGRTSSSHDMGWFRQAPGKEREFVAAISWSGGTTNYADSVKGRFAISKDNAKNAVSLQMNSLKPEDTAVYYCAAKWRPARYSDNPSNSDYNYWGQGTQVTVSS
notes: PDB 2xa3 holds D7 with five framework changes) with the stated CDR3 mutation; Chothia numbering
As for B3, in experiment [1], the “IC50 of neutralisation … Average” value stood at 0.69 µg/mL; the “IC50 of neutralisation … Exp1” value stood at 0.817 µg/mL; the “IC50 of neutralisation … Exp2” value is 0.56 µg/mL. In experiment [2], this molecule returned a Kd of 69.9 ± 14.2 nM, a koff of 0.005 s⁻¹ and a kon of 14000 M⁻¹ s⁻¹.

B4: VHH D7 Asp100C→Ala (VHH)
VHH: AVQLVESGGGLAQAGGSLRLSCTVSGRTSSSHDMGWFRQAPGKEREFVAAISWSGGTTNYADSVKGRFAISKDNAKNAVSLQMNSLKPEDTAVYYCAAKWRPLRYSANPSNSDYNYWGQGTQVTVSS
notes: PDB 2xa3 holds D7 with five framework changes) with the stated CDR3 mutation; Chothia numbering (100C is an insertion position)
B4: in experiment [1], the “IC50 of neutralisation … Average” value turned out to be 0.027 µg/mL; the “IC50 of neutralisation … Exp1” value was determined as 0.4 µg/mL; the “IC50 of neutralisation … Exp2” value was 0.014 µg/mL. Moreover, in experiment [2], the Kd came to 0.84 ± 0.12 nM, the koff was 0.000199 s⁻¹ and the kon worked out at 236000 M⁻¹ s⁻¹.

B5: VHH D7 Trp96→Ala (VHH)
VHH: AVQLVESGGGLAQAGGSLRLSCTVSGRTSSSHDMGWFRQAPGKEREFVAAISWSGGTTNYADSVKGRFAISKDNAKNAVSLQMNSLKPEDTAVYYCAAKARPLRYSDNPSNSDYNYWGQGTQVTVSS
notes: as for B3
B5: in experiment [1], the “IC50 of neutralisation … Average” value was determined as 2.6 µg/mL; the “IC50 of neutralisation … Exp1” value turned out to be 2.72 µg/mL; the “IC50 of neutralisation … Exp2” value is 2.43 µg/mL. In experiment [2], this molecule gave a Kd of 27.9 ± 20.5 nM, a koff of 0.00313 s⁻¹ and a kon of 146000 M⁻¹ s⁻¹.

B6: VHH D7 double mutant Asn101→Tyr/Tyr102→Asp (VHH)
VHH: AVQLVESGGGLAQAGGSLRLSCTVSGRTSSSHDMGWFRQAPGKEREFVAAISWSGGTTNYADSVKGRFAISKDNAKNAVSLQMNSLKPEDTAVYYCAAKWRPLRYSDNPSNSDYYDWGQGTQVTVSS
notes: PDB 2xa3 holds D7 with five framework changes) with the stated CDR3 mutations; Chothia numbering; also called double mutant Asn^101Tyr^102
B6: in experiment [1], the “IC50 of neutralisation … Average” value amounted to 0.011 µg/mL; the “IC50 of neutralisation … Exp1” value worked out at 0.017 µg/mL; the “IC50 of neutralisation … Exp2” value is 0.005 µg/mL. Besides, in experiment [2], binding was characterised by a dissociation constant (Kd) of 0.18 ± 0.15 nM, the koff is 3.3e-05 s⁻¹ and the kon is 187000 M⁻¹ s⁻¹.

B7: VHH D7 Tyr100A→Ala (VHH)
VHH: AVQLVESGGGLAQAGGSLRLSCTVSGRTSSSHDMGWFRQAPGKEREFVAAISWSGGTTNYADSVKGRFAISKDNAKNAVSLQMNSLKPEDTAVYYCAAKWRPLRASDNPSNSDYNYWGQGTQVTVSS
notes: PDB 2xa3 holds D7 with five framework changes) with the stated CDR3 mutation; Chothia numbering (100A is an insertion position)
In the case of B7, in experiment [1], the “IC50 of neutralisation … Average” value was 0.023 µg/mL; the “IC50 of neutralisation … Exp1” value came to 0.028 µg/mL; the “IC50 of neutralisation … Exp2” value is 0.018 µg/mL. Further, in experiment [2], binding was characterised by a dissociation constant (Kd) of 1.55 ± 0.07 nM, the koff was determined as 0.000359 s⁻¹ and the kon was 233000 M⁻¹ s⁻¹.

B8: VHH D7 Lys95→Ser (VHH)
VHH: AVQLVESGGGLAQAGGSLRLSCTVSGRTSSSHDMGWFRQAPGKEREFVAAISWSGGTTNYADSVKGRFAISKDNAKNAVSLQMNSLKPEDTAVYYCAASWRPLRYSDNPSNSDYNYWGQGTQVTVSS
notes: as for B3
In the case of B8, in experiment [1], the “IC50 of neutralisation … Average” value is 3 µg/mL; the “IC50 of neutralisation … Exp1” value worked out at 3.43 µg/mL; the “IC50 of neutralisation … Exp2” value amounted to 2.64 µg/mL. Also, in experiment [2], binding was put at a Kd of 377 ± 276 nM, the koff stood at 0.00236 s⁻¹ and the kon is 13000 M⁻¹ s⁻¹.
